From paper PMC3616908
Blank lines part the entries; values can stand above or below the substance they belong to.

Target: Chk1 (UniProt P38147)
Test: biotinylated 35-mer peptide pull-down, anti-FLAG blot

binding against the reference (reference: unphosphorylated peptide, sites T125): weaker
Substance: Rad9 (from UniProt P14737) T125p peptide

binding against the reference (reference: T125p peptide, sites T143): stronger
binding against the reference (reference: T143p peptide, sites T125): weaker
binding against the reference (reference: unphosphorylated peptide, sites T125,T143): stronger
Substance: Rad9 (from UniProt P14737) T125pT143p peptide

binding against the reference (reference: unphosphorylated peptide, sites T143): stronger
Substance: Rad9 (from UniProt P14737) T143p peptide

binding against the reference (reference: T143p peptide, untreated or λ phosphatase plus inhibitors, sites T143): weaker
Substance: Rad9 (from UniProt P14737) T143p peptide, λ phosphatase treated
